# Test results from the supplement of paper PMC7877785.
# ± gives the uncertainty stated by the source.
# Test: self-splicing fitness, log relative to wild type (ln ratio); higher = more splicing; Tetrahymena group I intron in knt gene, E. coli kanamycin selection, DiMSum; sequences stand for … in CUCUCU…GGAGGGAAAAGUUAUCAGGCAUGCACCUGGUAGCUAGUCUUUAAACCAAUAGAUUGCAUCGGUUUAAAAGGCAAGACCGUCAAAUUGCGGGAAAGGGGUCAACAGCCGUUCAGUACCAAGUCUCAGGGGAAACUUUGAGAUGGCCUUGCAAAGGGUAUGGUAAUAAGCUGACGGACAUGGUCCUAACCACGCAGCCAAGUCCUAAGUCAACAGAUCUUCUGUUGAUAUGGAUGCAGUUCACAGACUAAAUGUCGGUCGGGGAAGAUGUAUUCUUCUCAUAAGAUAUAGUCGGACCUCUCCUUAAUGGGAGCUAGCGGAUGAAGUGAUGCAACACUGGAGCCGCUGGGAACUAAUUUGUAUGCGAAAGUAUAUUGAUUAGUUUUGGAGUACUCGUGGUCG
# Procedure, shortened: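 The eight P1ex-region nucleotides of an intron in the knt kanamycin-resistance gene on pET-22b(+) were all randomised and the library put into E. coli BL21(DE3). Six replicate transformations were grown overnight at 37°C or 30°C on LB agar with or without 25 μg/mL kanamycin, together with 100 μg/mL carbenicillin, 50 μM IPTG and 0.2% rhamnose. Colonies were pooled and amplicon-sequenced on an Illumina HiSeq 2500. Fitness from DiMSum is the error-weighted combination of wild-type-normalised replicate fold changes, kanamycin over none.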
Sequence,self-splicing fitness (ln) (30 °C),self-splicing fitness (ln) (37 °C)
GGAAAGCAAUAUUACGCAUA,-0.868 ± 0.1,-1.5 ± 0.12
GGAAAGCAAUAUUACGCGAG,-0.597 ± 0.1,0.758 ± 0.1
GGAAAGCAAUAUUACGCGUU,-3.16 ± 0.16,-2.49 ± 0.19
GGAAAGCAAUAUUACGCUAU,-2.74 ± 0.28,-2.11 ± 0.21
GGAAAGCAAUAUUACGCUGC,-3.32 ± 0.38,–
GGAAAGCAAUAUUACGGAUU,-1.93 ± 0.085,-0.946 ± 0.11
GGAAAGCAAUAUUACGGCAC,-0.927 ± 0.12,-0.0107 ± 0.14
GGAAAGCAAUAUUACGGGCU,-1.29 ± 0.12,-0.815 ± 0.18
GGAAAGCAAUAUUACGUAUC,-2.09 ± 0.18,-1.01 ± 0.15
GGAAAGCAAUAUUACGUCAU,-2.34 ± 0.18,-1.38 ± 0.18
GGAAAGCAAUAUUACGUCCU,-3.68 ± 0.21,-1.14 ± 0.14
GGAAAGCAAUAUUACGUCUG,-0.579 ± 0.054,0.2 ± 0.07
GGAAAGCAAUAUUACGUCUU,-0.00168 ± 0.13,-0.112 ± 0.15
GGAAAGCAAUAUUACGUGCU,-1.11 ± 0.089,-0.467 ± 0.096
GGAAAGCAAUAUUACGUUGU,-4.15 ± 0.23,-2.19 ± 0.15
GGACAGCAAUAUUACGACGA,-1.77 ± 0.16,-0.403 ± 0.19
GGACAGCAAUAUUACGACGG,-2.69 ± 0.28,-2.16 ± 0.36
GGACAGCAAUAUUACGAGAU,-3.03 ± 0.14,-1.45 ± 0.13
GGACAGCAAUAUUACGAUUU,0.167 ± 0.047,0.417 ± 0.065
GGACAGCAAUAUUACGCACU,-1.12 ± 0.086,-0.6 ± 0.13
GGACAGCAAUAUUACGCUUG,-1.45 ± 0.094,-0.762 ± 0.11
GGACAGCAAUAUUACGGAUA,-1.13 ± 0.11,-1.51 ± 0.093
GGACAGCAAUAUUACGGCCU,-2.3 ± 0.13,-1.13 ± 0.12

Sequence,self-splicing fitness (ln) (30 °C),self-splicing fitness (ln) (37 °C)
GGACAGCAAUAUUACGGGAC,-1.56 ± 0.13,-1.98 ± 0.19
GGACAGCAAUAUUACGGGUC,-3.54 ± 0.23,-2.56 ± 0.26
GGACAGCAAUAUUACGGUCG,-1.1 ± 0.092,-0.39 ± 0.14
GGACAGCAAUAUUACGUAUU,-0.426 ± 0.049,-0.492 ± 0.068
GGACAGCAAUAUUACGUCGC,-3.12 ± 0.18,0.343 ± 0.15
GGACAGCAAUAUUACGUCGU,-1.45 ± 0.071,-0.405 ± 0.075
GGAGAGCAAUAUUACGAAAU,–,-2.48 ± 0.48
GGAGAGCAAUAUUACGACGC,-0.0524 ± 0.081,-0.0426 ± 0.092
GGAGAGCAAUAUUACGACGG,-2.35 ± 0.29,-2.17 ± 0.36
GGAGAGCAAUAUUACGAGAC,-2.12 ± 0.22,-1.88 ± 0.35
GGAGAGCAAUAUUACGAUCU,–,-2.47 ± 0.29
GGAGAGCAAUAUUACGAUGG,-4.43 ± 0.46,–
GGAGAGCAAUAUUACGAUUA,–,-0.884 ± 0.37
GGAGAGCAAUAUUACGAUUG,-2.75 ± 0.26,-2.17 ± 0.43
GGAGAGCAAUAUUACGAUUU,-1.65 ± 0.24,0.185 ± 0.43
GGAGAGCAAUAUUACGCCUC,-3.07 ± 0.36,–
GGAGAGCAAUAUUACGCGAA,-2.02 ± 0.24,-2.72 ± 0.36
GGAGAGCAAUAUUACGCGCA,-1.36 ± 0.19,-0.414 ± 0.21
GGAGAGCAAUAUUACGCGGG,-2.21 ± 0.35,–
GGAGAGCAAUAUUACGGAGA,-2.3 ± 0.29,–
GGAGAGCAAUAUUACGGGAC,-2.46 ± 0.23,-0.231 ± 0.32
GGAGAGCAAUAUUACGGGCU,-2.73 ± 0.27,–
